We go through one molecule from paper PMC3025574 (Nucleic Acids Research, 2010).

This assay addresses Escherichia coli DNA gyrase B subunit (GyrB) (Escherichia coli, UniProt P0AES6 1-804). The assay is described as follows: SAXS.

B1: GyrA-ΔCTD (mutant GyrA subunit lacking the CTDs, residues 1–523) (domain or fragment)
chain: MSDLAREITPVNIEEELKSSYLDYAMSVIVGRALPDVRDGLKPVHRRVLYAMNVLGNDWNKAYKKSARVVGDVIGKYHPHGDSAVYDTIVRMAQPFSLRYMLVDGQGNFGSIDGDSAAAMRYTEIRLAKIAHELMADLEKETVDFVDNYDGTEKIPDVMPTKIPNLLVNGSSGIAVGMATNIPPHNLTEVINGCLAYIDDEDISIEGLMEHIPGPDFPTAAIINGRRGIEEAYRTGRGKVYIRARAEVEVDAKTGRETIIVHEIPYQVNKARLIEKIAELVKEKRVEGISALRDESDKDGMRIVIEVKRDAVGEVVLNNLYSQTQLQVSFGINMVALHHGQPKIMNLKDIIAAFVRHRREVVTRRTIFELRKARDRAHILEALAVALANIDPIIELIRHAPTPAEAKTALVANPWQLGNVAAMLERAGDDAARPEWLEPEFGVRDGLYYLTEQQAQAILDLRLQKLTGLEHEKLLDEYKELLDQIAELLRILGSADRLMEVIREELELVREQFGDKRRTEITA
Turning to B1, the binding result is given as “binds”.
